Data as given in US20250049939A1 (TUBULIS, published 2025).

Columns and labels:
[1] = biological target: T1, recombinant human FLT3 protein (human, UniProt P36888 27-541); assay: ELISA with recombinant human FLT3 coated to the plate (results of FIG. 13 summarized)
T1 construct: also called recombinant FLT3 protein; human recombinant FLT3 protein (10445-H08H, Sino Biological)
T1 sequence: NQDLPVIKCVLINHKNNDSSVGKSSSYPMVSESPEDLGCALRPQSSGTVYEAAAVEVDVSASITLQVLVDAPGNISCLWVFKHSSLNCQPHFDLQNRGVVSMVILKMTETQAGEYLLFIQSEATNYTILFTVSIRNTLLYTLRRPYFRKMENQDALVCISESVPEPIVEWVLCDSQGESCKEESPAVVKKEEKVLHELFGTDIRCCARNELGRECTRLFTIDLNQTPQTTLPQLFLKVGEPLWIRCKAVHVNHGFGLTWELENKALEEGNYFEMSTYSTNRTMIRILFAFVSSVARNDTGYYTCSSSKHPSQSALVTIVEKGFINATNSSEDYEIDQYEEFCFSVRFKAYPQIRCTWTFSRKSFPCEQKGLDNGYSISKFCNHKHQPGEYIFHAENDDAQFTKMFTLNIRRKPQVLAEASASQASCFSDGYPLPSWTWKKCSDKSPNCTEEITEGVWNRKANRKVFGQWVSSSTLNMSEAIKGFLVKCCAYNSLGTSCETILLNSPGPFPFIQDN
Experimental: Maxisorp plates were coated with human recombinant FLT3 protein (10445-H08H, Sino Biological). […] For detection, Attophos Fluorescent Substrate System (S1000, Promega) was applied. The fluorescence was read with excitation of 405 nm and emission at 500-550 nm. The calculation of the dissociation constant KD was performed using GraphPad Prism version 9.4.0.
The 12 clones were subsequently analysed in ELISA assays (FIG. 13). Therefore, recombinant human FLT3 was coated on plates and incubated with the antibody candidates. […] Mean±s.d. of n=3 biological replicates.

[2] = biological target: T2, human CD64 (high affinity Fc receptor, FCGR1) on cells (human, UniProt P12314 16-374); assay: flow cytometry, cell surface binding to Ba/F3-pMIY cells expressing CD64, specific MFI, mean ± s.d. of n=3
T2 construct: whole, on cells; also called hCD64; human FCGR1

PDGFRα on Ba/F3 cells = biological target: T3, PDGFRα on Ba/F3 cells (UniProt P16234 24-1089, limits assumed); assay: flow cytometry, cell surface binding to Ba/F3 pMIY cells expressing PDGFRα, MFI ratio normalized to IgG1, mean ± s.d. of n=3
T3 construct: whole, on cells

[3] = biological target: T4, rat FLT3 expressed on Ba/F3 cells (rat, UniProt A0A0G2JW59 27-982); assay: flow cytometry, cell surface binding to Ba/F3 pMIY cells expressing rFLT3wt, MFI ratio normalized to IgG1, mean ± s.d. of n=3
T4 construct: whole, on cells
T4 sequence: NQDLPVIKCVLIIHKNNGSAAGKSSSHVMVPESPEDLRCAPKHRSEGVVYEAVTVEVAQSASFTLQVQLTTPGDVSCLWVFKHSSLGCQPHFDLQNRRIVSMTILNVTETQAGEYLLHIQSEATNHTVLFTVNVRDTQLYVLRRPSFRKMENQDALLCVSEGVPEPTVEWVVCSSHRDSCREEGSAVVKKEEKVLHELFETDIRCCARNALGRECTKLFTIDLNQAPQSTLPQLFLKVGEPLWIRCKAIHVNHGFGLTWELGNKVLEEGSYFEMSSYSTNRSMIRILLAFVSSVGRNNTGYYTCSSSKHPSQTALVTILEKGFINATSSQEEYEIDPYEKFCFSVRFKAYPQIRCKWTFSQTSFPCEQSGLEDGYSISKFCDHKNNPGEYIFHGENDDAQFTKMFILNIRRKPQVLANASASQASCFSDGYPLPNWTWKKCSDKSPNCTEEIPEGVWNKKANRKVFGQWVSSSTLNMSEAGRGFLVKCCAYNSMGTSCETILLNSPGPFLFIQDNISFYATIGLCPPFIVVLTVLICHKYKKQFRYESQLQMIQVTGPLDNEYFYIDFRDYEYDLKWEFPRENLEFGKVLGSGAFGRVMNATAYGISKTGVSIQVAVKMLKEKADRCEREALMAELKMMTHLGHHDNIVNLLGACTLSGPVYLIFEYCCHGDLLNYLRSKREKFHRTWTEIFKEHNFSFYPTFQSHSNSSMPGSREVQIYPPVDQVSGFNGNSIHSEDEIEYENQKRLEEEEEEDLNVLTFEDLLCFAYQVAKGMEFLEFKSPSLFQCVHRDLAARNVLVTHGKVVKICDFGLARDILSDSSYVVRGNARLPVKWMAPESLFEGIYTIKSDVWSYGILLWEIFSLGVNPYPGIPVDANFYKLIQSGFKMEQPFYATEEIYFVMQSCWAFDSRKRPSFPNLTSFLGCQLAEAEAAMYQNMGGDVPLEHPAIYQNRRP

c-KIT on Ba/F3 cells = biological target: T5, c-KIT on Ba/F3 cells (UniProt P10721 26-976, limits assumed); assay: flow cytometry, cell surface binding to Ba/F3 pMIY cells expressing c-KIT, MFI ratio normalized to IgG1, mean ± s.d. of n=3
T5 construct: whole, on cells

VEGFR-2 on Ba/F3 cells = biological target: T6, VEGFR-2 on Ba/F3 cells (UniProt P35968 20-1356, limits assumed); assay: flow cytometry, cell surface binding to Ba/F3 pMIY cells expressing VEGFR, MFI ratio normalized to IgG1, mean ± s.d. of n=3
T6 construct: whole, on cells

CSF1R on Ba/F3 cells = biological target: T7, CSF1R on Ba/F3 cells (UniProt P07333 20-972, limits assumed); assay: flow cytometry, cell surface binding to Ba/F3 pMIY cells expressing CSF-1R, MFI ratio normalized to IgG1, mean ± s.d. of n=3
T7 construct: whole, on cells
T7 sequence (P07333 20-972 limits assumed): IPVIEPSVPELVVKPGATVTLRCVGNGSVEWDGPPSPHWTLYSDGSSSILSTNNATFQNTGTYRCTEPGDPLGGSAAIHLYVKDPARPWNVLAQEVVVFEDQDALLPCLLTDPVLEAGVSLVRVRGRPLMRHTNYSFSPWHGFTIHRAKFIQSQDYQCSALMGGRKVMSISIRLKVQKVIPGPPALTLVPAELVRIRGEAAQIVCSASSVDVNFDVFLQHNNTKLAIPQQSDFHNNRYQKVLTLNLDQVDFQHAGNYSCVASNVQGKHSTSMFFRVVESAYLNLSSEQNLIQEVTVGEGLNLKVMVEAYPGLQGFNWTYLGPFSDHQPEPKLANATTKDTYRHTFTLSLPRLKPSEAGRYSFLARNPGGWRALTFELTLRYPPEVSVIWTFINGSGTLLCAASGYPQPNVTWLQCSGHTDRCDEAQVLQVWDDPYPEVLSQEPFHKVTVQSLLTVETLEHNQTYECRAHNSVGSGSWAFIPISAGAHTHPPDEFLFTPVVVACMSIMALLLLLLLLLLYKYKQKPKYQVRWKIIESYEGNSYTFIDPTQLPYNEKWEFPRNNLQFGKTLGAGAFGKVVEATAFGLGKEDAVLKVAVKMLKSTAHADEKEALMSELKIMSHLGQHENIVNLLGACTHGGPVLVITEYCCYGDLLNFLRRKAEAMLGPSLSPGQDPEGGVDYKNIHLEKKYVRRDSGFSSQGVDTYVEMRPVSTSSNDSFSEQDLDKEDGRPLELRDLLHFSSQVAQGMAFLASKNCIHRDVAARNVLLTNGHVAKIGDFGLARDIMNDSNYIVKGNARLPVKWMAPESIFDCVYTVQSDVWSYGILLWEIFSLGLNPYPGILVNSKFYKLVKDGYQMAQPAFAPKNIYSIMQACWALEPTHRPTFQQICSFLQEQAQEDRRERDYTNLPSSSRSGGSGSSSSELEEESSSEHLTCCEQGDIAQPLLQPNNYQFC

T5 sequence (P10721 26-976 limits assumed): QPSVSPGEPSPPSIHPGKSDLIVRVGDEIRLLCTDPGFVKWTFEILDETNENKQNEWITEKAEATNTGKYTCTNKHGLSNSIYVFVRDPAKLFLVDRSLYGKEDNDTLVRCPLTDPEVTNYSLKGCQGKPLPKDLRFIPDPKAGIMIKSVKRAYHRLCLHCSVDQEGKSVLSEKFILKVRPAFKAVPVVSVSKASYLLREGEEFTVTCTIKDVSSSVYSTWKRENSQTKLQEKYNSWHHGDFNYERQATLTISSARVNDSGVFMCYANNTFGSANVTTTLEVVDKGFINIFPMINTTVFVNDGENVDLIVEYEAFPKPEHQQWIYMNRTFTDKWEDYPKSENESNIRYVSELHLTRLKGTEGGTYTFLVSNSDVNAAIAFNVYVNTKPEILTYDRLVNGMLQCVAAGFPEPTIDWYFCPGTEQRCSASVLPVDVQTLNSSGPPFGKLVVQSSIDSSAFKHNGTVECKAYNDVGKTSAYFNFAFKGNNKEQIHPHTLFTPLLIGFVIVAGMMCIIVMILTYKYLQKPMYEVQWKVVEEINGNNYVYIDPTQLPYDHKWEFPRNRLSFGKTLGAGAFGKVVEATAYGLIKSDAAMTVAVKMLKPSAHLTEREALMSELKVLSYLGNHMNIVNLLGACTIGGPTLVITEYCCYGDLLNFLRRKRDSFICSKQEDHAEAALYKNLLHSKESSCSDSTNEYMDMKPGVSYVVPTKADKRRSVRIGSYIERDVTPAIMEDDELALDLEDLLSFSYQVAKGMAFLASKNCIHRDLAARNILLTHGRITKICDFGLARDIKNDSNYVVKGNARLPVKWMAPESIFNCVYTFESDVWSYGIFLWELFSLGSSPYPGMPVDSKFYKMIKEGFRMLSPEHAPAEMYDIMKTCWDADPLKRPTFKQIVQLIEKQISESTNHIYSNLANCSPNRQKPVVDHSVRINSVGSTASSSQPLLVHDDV
T6 sequence (P35968 20-1356 limits assumed): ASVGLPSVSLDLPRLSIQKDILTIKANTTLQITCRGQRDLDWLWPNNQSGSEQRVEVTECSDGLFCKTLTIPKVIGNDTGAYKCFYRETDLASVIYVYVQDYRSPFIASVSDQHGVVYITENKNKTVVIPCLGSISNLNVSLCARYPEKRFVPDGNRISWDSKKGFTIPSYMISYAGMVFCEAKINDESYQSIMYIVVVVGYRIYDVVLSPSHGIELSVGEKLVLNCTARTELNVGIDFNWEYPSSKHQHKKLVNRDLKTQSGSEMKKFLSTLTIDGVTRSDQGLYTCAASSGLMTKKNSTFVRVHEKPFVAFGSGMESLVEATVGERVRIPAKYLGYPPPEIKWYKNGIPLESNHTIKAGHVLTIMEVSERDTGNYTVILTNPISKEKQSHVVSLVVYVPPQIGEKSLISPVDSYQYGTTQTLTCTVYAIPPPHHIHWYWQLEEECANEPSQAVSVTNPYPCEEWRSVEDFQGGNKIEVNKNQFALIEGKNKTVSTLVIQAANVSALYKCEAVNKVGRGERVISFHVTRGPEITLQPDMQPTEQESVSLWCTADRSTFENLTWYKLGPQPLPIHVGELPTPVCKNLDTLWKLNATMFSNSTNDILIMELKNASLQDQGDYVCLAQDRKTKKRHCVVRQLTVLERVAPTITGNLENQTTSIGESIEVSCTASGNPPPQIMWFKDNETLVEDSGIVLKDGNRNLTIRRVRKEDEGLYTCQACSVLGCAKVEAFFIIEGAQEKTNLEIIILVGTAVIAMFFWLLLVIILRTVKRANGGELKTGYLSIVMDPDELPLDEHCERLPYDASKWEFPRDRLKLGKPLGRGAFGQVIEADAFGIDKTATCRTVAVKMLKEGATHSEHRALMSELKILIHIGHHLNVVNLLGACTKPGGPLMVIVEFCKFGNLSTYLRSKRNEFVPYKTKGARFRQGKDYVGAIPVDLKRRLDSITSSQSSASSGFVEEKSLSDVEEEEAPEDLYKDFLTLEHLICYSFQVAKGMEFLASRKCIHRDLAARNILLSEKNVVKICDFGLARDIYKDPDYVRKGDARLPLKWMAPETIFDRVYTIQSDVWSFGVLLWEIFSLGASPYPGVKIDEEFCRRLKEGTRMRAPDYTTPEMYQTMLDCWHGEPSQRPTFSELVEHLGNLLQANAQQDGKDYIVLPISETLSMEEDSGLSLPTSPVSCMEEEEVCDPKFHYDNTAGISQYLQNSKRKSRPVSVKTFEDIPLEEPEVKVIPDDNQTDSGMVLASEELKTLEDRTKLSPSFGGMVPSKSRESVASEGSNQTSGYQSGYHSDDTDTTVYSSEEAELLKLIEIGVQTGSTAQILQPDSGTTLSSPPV
T3 sequence (P16234 24-1089 limits assumed): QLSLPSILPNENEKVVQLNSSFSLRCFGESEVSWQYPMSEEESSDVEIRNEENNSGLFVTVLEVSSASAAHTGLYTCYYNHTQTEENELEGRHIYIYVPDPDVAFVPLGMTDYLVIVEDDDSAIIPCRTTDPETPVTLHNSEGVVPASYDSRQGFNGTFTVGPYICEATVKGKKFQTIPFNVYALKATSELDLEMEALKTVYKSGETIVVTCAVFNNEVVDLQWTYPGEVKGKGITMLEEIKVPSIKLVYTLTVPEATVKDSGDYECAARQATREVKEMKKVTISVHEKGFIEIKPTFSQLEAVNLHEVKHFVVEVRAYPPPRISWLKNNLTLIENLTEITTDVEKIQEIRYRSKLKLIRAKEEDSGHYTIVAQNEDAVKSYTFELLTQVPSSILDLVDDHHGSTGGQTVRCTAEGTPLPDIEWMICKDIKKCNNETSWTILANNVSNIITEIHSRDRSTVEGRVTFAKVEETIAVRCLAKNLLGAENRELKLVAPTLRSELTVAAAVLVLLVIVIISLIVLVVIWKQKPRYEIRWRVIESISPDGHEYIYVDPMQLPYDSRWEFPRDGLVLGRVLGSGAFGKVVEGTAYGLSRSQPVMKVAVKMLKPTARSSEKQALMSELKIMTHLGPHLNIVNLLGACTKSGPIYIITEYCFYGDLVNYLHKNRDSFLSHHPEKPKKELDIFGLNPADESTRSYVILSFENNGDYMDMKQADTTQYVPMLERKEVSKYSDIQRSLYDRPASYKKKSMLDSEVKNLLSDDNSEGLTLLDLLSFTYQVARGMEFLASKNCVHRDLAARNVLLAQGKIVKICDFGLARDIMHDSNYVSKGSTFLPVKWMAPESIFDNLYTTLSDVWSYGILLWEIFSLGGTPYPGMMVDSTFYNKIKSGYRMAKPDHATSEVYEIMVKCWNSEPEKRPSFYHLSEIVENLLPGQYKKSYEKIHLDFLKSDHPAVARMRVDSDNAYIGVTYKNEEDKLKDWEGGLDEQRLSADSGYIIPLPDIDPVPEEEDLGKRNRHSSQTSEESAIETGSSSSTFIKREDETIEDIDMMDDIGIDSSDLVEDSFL
T2 sequence (P12314 16-374): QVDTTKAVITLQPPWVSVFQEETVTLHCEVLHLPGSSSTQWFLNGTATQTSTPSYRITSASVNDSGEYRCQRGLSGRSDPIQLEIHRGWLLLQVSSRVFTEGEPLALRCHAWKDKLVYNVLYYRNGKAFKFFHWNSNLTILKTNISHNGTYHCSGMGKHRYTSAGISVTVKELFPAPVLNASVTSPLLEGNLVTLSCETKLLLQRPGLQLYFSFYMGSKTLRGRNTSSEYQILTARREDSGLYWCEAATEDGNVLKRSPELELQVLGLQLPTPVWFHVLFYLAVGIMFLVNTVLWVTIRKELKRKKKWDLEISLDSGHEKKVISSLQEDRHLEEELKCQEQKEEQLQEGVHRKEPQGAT

- Kd [1]: 0.0113 µg/mL
- binding result [2]: binds
- binding result (PDGFRα on Ba/F3 cells): no binding
- binding result [3]: no binding
- binding result (c-KIT on Ba/F3 cells): no binding
- binding result (VEGFR-2 on Ba/F3 cells): no binding
- binding result (CSF1R on Ba/F3 cells): no binding
B1: Humanized clone 3 of 20D9 (VH3 + VK1) (antibody, human IgG1, kappa)
heavy: not shown
light: DIQMTQSPSVLSASVGDRVTINCRASQNINKELNWYQQKLGEAPKLLIYNTNNLQSGVPSRFSGSGSGTDYTLTISSLQPEDVATYFCFQHKSWPLTFGSGTKLEIKRTVAAPSVFIFPPSDEQLKSGTASVVCLLNNFYPREAKVQWKVDNALQSGNSQESVTEQDSKDSTYSLSSTLTLSKADYEKHKVYACEVTHQGLSSPVTKSFNRGEC
notes: also called candidate #3; #3 mab
